Laboratory results published in US20260049137A1 (JANUX THERAPEUTICS, published 2026).
Like-named read-outs stand apart in the source and are kept apart here.

Assays:
[1] = target: T1, TROP2 on TROP2 positive NCI-H292 or HCT116 tumor cells (UniProt P09758 27-323, limits assumed); assay: cell-based or functional assay
T1 sequence (looked up): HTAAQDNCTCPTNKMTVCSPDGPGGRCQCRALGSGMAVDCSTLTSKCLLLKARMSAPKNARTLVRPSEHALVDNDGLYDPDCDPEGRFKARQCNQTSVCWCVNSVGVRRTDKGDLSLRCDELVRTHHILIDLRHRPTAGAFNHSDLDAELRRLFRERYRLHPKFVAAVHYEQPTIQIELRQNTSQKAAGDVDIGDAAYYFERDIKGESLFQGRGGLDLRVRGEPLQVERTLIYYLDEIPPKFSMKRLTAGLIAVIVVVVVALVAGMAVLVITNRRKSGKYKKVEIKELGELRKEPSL

[2] = target: T1, TROP2 on TROP2 positive NCI-H292 or …; assay: cell-based or functional assay; remark: listed apart in the source
[3] = target: T1, TROP2 on TROP2 positive NCI-H292 or …; assay: cell-based or functional assay; remark: listed apart in the source
[4] = target: T1, TROP2 on TROP2 positive NCI-H292 or …; assay: cell-based or functional assay; remark: listed apart in the source
[5] = target: T2, cynomolgus monkey TROP2 on recombinant HEK293 cells (cynomolgus monkey, UniProt A0A2K5UE71 27-323); assay: cell-based or functional assay
T2 sequence: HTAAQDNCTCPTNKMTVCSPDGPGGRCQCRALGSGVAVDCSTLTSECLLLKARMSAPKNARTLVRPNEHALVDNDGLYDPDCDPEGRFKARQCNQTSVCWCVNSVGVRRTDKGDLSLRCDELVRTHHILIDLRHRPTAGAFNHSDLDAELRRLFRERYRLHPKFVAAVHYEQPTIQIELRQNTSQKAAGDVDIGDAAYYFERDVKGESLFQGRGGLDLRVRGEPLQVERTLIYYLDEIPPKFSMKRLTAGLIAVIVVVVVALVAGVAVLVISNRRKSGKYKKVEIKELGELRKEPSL

[6] = target: T1, TROP2 on TROP2 positive NCI-H292 or …; assay: cell-based or functional assay; remark: listed apart in the source
[7] = target: T3, human CD3ε-biotin (biotinylated CD3ε) (human, UniProt P07766 23-126, limits assumed, biotinylated); assay: ELISA: biotinylated CD3 captured on neutravidin coated plates, HRP secondary antibody, OD 450 nm
T3 construct: also called CD3e-bio; CD3e-biotin
T3 sequence (P07766 23-126 limits assumed): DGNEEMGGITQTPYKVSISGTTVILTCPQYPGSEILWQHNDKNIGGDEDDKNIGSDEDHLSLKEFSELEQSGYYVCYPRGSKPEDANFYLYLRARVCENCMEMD
Method: (§1) The TCE constructs diluted in buffer were then added to the antigen coated plates. Binding was detected using a standard horse radish peroxidase secondary antibody. The concentration of the TCE required to achieve 50% maximal signal (EC₅₀) was calculated using Graphpad Prism software.

[8] = target: T4, human TROP2-biotin (biotinylated TROP2) (human, UniProt P09758 27-274, limits assumed, biotinylated); assay: ELISA: biotinylated TROP2 captured on neutravidin coated plates, HRP secondary antibody, OD 450 nm
T4 construct: also called hTROP2-Biotin
T4 sequence (looked up): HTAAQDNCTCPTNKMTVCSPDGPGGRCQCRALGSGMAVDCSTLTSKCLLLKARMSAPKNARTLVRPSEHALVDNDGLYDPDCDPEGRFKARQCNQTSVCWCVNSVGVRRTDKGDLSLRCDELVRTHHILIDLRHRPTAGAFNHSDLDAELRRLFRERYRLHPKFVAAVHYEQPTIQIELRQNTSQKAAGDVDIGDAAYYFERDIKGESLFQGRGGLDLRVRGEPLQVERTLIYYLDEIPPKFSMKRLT
Method: as §1

B1: TCE-1: anti-CD3 scFv wt + linker + anti-TROP2 HC wt, with anti-TROP2 LC wt (bispecific antibody)
light: DIQLTQSPSSLSASVGDRVSITCKASQDVSIAVAWYQQKPGKAPKLLIYSASYRYTGVPDRFSGSGSGTDFTLTISSLQPEDFAVYYCQQHYITPLTFGAGTKVEIKRTVAAPSVFIFPPSDEQLKSGTASVVCLLNNFYPREAKVQWKVDNALQSGNSQESVTEQDSKDSTYSLSSTLTLSKADYEKHKVYACEVTHQGLSSPVTKSFNRGEC
heavy: not shown
For B1, the “H292 Cytotox EC50 (pM)” value [1] was 0.7 pM, the “H292 Cytotox EC50 (pM)” value [2] was 0.7 pM and the “H292 Cytotox EC50 (pM)” value [3] was 0.7 pM.

B2: TCE-29: anti-CD3 scFv wt + linker + anti-TROP2 (F108A) HC, with anti-TROP2 LC wt (bispecific antibody)
light: DIQLTQSPSSLSASVGDRVSITCKASQDVSIAVAWYQQKPGKAPKLLIYSASYRYTGVPDRFSGSGSGTDFTLTISSLQPEDFAVYYCQQHYITPLTFGAGTKVEIKRTVAAPSVFIFPPSDEQLKSGTASVVCLLNNFYPREAKVQWKVDNALQSGNSQESVTEQDSKDSTYSLSSTLTLSKADYEKHKVYACEVTHQGLSSPVTKSFNRGEC
heavy: not shown
B2 was tested, and the “HCT116 Cytotox EC50 (pM)” value [4] was 109 pM, the “CynoTROP2+ HEK293 cells Cytotox EC50 (pM)” value [5] was 0.2 pM and the “H292 Cytotox EC50 (pM)” value [6] was 5 pM.

B3: TCE-27: anti-CD3 scFv + linker + anti-TROP2 HC wt, with anti-TROP2 LC wt (bispecific antibody)
light: DIQLTQSPSSLSASVGDRVSITCKASQDVSIAVAWYQQKPGKAPKLLIYSASYRYTGVPDRFSGSGSGTDFTLTISSLQPEDFAVYYCQQHYITPLTFGAGTKVEIKRTVAAPSVFIFPPSDEQLKSGTASVVCLLNNFYPREAKVQWKVDNALQSGNSQESVTEQDSKDSTYSLSSTLTLSKADYEKHKVYACEVTHQGLSSPVTKSFNRGEC
heavy: EVQLVESGGGLVQPGGSLKLSCAASGFTFNKYAMNWVRQASGKGLEWVGRIRSKYNNYATYYADSVKDRFTISRDDSKNTAYLQMNSLKTEDTAVYYCVRHGNFGNSYISYWAYWGQGTLVTVSSGGGGSGGGGSGGGGSQTVVTQEPSFSVSPGGTVTLTCRSSTGAVTSGNYANWVQQTPGQAPRGLIGGTKFLAPGVPDRFSGSILGNKAALTITGAQADDESDYYCVLWYSNRWVFGGGTKLTVLGGGGSQVQLQQSGSELKKPGASVKVSCKASGYTFTNYGMNWVKQAPGQGLKWMGWINTYTGEPTYTDDFKGRFAFSLDTSVSTAYLQISSLKADDTAVYFCARGGFGSSYWYFDVWGQGSLVTVSSASTKGPSVFPLAPSSKSTSGGTAALGCLVKDYFPEPVTVSWNSGALTSGVHTFPAVLQSSGLYSLSSVVTVPSSSLGTQTYICNVNHKPSNTKVDKKVEPKSC
For B3, the “H292 Cytotox EC50 (pM)” value [2] was 0.5 pM.

B4: TCE-48 (bispecific antibody)
light chain (anti-TROP2 LC wt): DIQLTQSPSSLSASVGDRVSITCKASQDVSIAVAWYQQKPGKAPKLLIYSASYRYTGVPDRFSGSGSGTDFTLTISSLQPEDFAVYYCQQHYITPLTFGAGTKVEIKRTVAAPSVFIFPPSDEQLKSGTASVVCLLNNFYPREAKVQWKVDNALQSGNSQESVTEQDSKDSTYSLSSTLTLSKADYEKHKVYACEVTHQGLSSPVTKSFNRGEC
heavy chain (anti-CD3 scFv L232A + linker + anti-TROP2 F108A HC): not shown
notes: also called TCE-48: anti-CD3 scFv (L232A) + linker + anti-TROP2 (F108A) HC, with anti-TROP2 LC wt
Work on B4 yielded an EC50 [7] of 0.36 nM and an EC50 [8] of 1.3 nM.

B5: TCE-35: anti-CD3 scFv wt + linker + anti-TROP2 (D109A) HC, with anti-TROP2 LC wt (bispecific antibody)
light: DIQLTQSPSSLSASVGDRVSITCKASQDVSIAVAWYQQKPGKAPKLLIYSASYRYTGVPDRFSGSGSGTDFTLTISSLQPEDFAVYYCQQHYITPLTFGAGTKVEIKRTVAAPSVFIFPPSDEQLKSGTASVVCLLNNFYPREAKVQWKVDNALQSGNSQESVTEQDSKDSTYSLSSTLTLSKADYEKHKVYACEVTHQGLSSPVTKSFNRGEC
heavy: not shown
For B5, the “CynoTROP2+ HEK293 cells Cytotox EC50 (pM)” value [5] was 0.1 pM and the “H292 Cytotox EC50 (pM)” value [6] was 1 pM.

B6: TCE-19: anti-CD3 scFv (W233A) + linker + anti-TROP2 HC wt, with anti-TROP2 LC wt (bispecific antibody)
light: DIQLTQSPSSLSASVGDRVSITCKASQDVSIAVAWYQQKPGKAPKLLIYSASYRYTGVPDRFSGSGSGTDFTLTISSLQPEDFAVYYCQQHYITPLTFGAGTKVEIKRTVAAPSVFIFPPSDEQLKSGTASVVCLLNNFYPREAKVQWKVDNALQSGNSQESVTEQDSKDSTYSLSSTLTLSKADYEKHKVYACEVTHQGLSSPVTKSFNRGEC
heavy: not shown
In the case of B6, the “H292 Cytotox EC50 (pM)” value [1] is reported as over 1000 pM.

B7: TCE-49 (bispecific antibody)
light chain (anti-TROP2 LC wt): DIQLTQSPSSLSASVGDRVSITCKASQDVSIAVAWYQQKPGKAPKLLIYSASYRYTGVPDRFSGSGSGTDFTLTISSLQPEDFAVYYCQQHYITPLTFGAGTKVEIKRTVAAPSVFIFPPSDEQLKSGTASVVCLLNNFYPREAKVQWKVDNALQSGNSQESVTEQDSKDSTYSLSSTLTLSKADYEKHKVYACEVTHQGLSSPVTKSFNRGEC
heavy chain (anti-CD3 scFv N236A + linker + anti-TROP2 F108A HC): not shown
notes: also called TCE-49: anti-CD3 scFv (N236A) + linker + anti-TROP2 (F108A) HC, with anti-TROP2 LC wt
Binder B7 has an EC50 [7] of 0.23 nM and an EC50 [8] of 0.87 nM.

B8: TCE-33: anti-CD3 scFv + linker + anti-TROP2 (F108A) HC, with anti-TROP2 LC wt (bispecific antibody)
light: DIQLTQSPSSLSASVGDRVSITCKASQDVSIAVAWYQQKPGKAPKLLIYSASYRYTGVPDRFSGSGSGTDFTLTISSLQPEDFAVYYCQQHYITPLTFGAGTKVEIKRTVAAPSVFIFPPSDEQLKSGTASVVCLLNNFYPREAKVQWKVDNALQSGNSQESVTEQDSKDSTYSLSSTLTLSKADYEKHKVYACEVTHQGLSSPVTKSFNRGEC
heavy: EVQLVESGGGLVQPGGSLKLSCAASGFTFNKYAMNWVRQASGKGLEWVGRIRSKYNNYATYYADSVKDRFTISRDDSKNTAYLQMNSLKTEDTAVYYCVRHGNFGNSYISYWAYWGQGTLVTVSSGGGGSGGGGSGGGGSQTVVTQEPSFSVSPGGTVTLTCRSSTGAVTSGNYANWVQQTPGQAPRGLIGGTKFLAPGVPDRFSGSILGNKAALTITGAQADDESDYYCVLWYSNRWVFGGGTKLTVLGGGGSQVQLQQSGSELKKPGASVKVSCKASGYTFTNYGMNWVKQAPGQGLKWMGWINTYTGEPTYTDDFKGRFAFSLDTSVSTAYLQISSLKADDTAVYFCARGGFGSSYWYADVWGQGSLVTVSSASTKGPSVFPLAPSSKSTSGGTAALGCLVKDYFPEPVTVSWNSGALTSGVHTFPAVLQSSGLYSLSSVVTVPSSSLGTQTYICNVNHKPSNTKVDKKVEPKSC
B8 was tested, and the “HCT116 Cytotox EC50 (pM)” value [4] was 73 pM and the “H292 Cytotox EC50 (pM)” value [6] was 3 pM.

B9: TCE-26: anti-CD3 scFv (F240A) + linker + anti-TROP2 HC wt, with anti-TROP2 LC wt (bispecific antibody)
light: DIQLTQSPSSLSASVGDRVSITCKASQDVSIAVAWYQQKPGKAPKLLIYSASYRYTGVPDRFSGSGSGTDFTLTISSLQPEDFAVYYCQQHYITPLTFGAGTKVEIKRTVAAPSVFIFPPSDEQLKSGTASVVCLLNNFYPREAKVQWKVDNALQSGNSQESVTEQDSKDSTYSLSSTLTLSKADYEKHKVYACEVTHQGLSSPVTKSFNRGEC
heavy: not shown
For B9, the “H292 Cytotox EC50 (pM)” value [1] was 20 pM.

B10: TCE-30: anti-CD3 scFv (H101A) + linker + anti-TROP2 (F108A) HC, with anti-TROP2 LC wt (bispecific antibody)
light: DIQLTQSPSSLSASVGDRVSITCKASQDVSIAVAWYQQKPGKAPKLLIYSASYRYTGVPDRFSGSGSGTDFTLTISSLQPEDFAVYYCQQHYITPLTFGAGTKVEIKRTVAAPSVFIFPPSDEQLKSGTASVVCLLNNFYPREAKVQWKVDNALQSGNSQESVTEQDSKDSTYSLSSTLTLSKADYEKHKVYACEVTHQGLSSPVTKSFNRGEC
heavy: not shown
For B10, the “CynoTROP2+ HEK293 cells Cytotox EC50 (pM)” value [5] was 1 pM.

B11: TCE-32: anti-CD3 scFv (F240A) + linker + anti-TROP2 (F108A) HC, with anti-TROP2 LC wt (bispecific antibody)
light: DIQLTQSPSSLSASVGDRVSITCKASQDVSIAVAWYQQKPGKAPKLLIYSASYRYTGVPDRFSGSGSGTDFTLTISSLQPEDFAVYYCQQHYITPLTFGAGTKVEIKRTVAAPSVFIFPPSDEQLKSGTASVVCLLNNFYPREAKVQWKVDNALQSGNSQESVTEQDSKDSTYSLSSTLTLSKADYEKHKVYACEVTHQGLSSPVTKSFNRGEC
heavy: not shown
In the case of B11, the “HCT116 Cytotox EC50 (pM)” value [4] is reported as over 3000 pM and the “CynoTROP2+ HEK293 cells Cytotox EC50 (pM)” value [5] is reported as 5 pM.

B12: TCE-24: anti-CD3 scFv (W238A) + linker + anti-TROP2 HC wt, with anti-TROP2 LC wt (bispecific antibody)
light: DIQLTQSPSSLSASVGDRVSITCKASQDVSIAVAWYQQKPGKAPKLLIYSASYRYTGVPDRFSGSGSGTDFTLTISSLQPEDFAVYYCQQHYITPLTFGAGTKVEIKRTVAAPSVFIFPPSDEQLKSGTASVVCLLNNFYPREAKVQWKVDNALQSGNSQESVTEQDSKDSTYSLSSTLTLSKADYEKHKVYACEVTHQGLSSPVTKSFNRGEC
heavy: not shown
B12 was tested, and the “H292 Cytotox EC50 (pM)” value [1] was over 1000 pM.

B13: TCE-28: anti-CD3 scFv + linker + anti-TROP2 HC wt, with anti-TROP2 LC wt (bispecific antibody)
light: DIQLTQSPSSLSASVGDRVSITCKASQDVSIAVAWYQQKPGKAPKLLIYSASYRYTGVPDRFSGSGSGTDFTLTISSLQPEDFAVYYCQQHYITPLTFGAGTKVEIKRTVAAPSVFIFPPSDEQLKSGTASVVCLLNNFYPREAKVQWKVDNALQSGNSQESVTEQDSKDSTYSLSSTLTLSKADYEKHKVYACEVTHQGLSSPVTKSFNRGEC
heavy: not shown
B13 was tested, and the “H292 Cytotox EC50 (pM)” value [2] was 2.1 pM.
